Results published in the nanobody polyreactivity screen of Harvey et al. (2022).

Assay: yeast display, Sf9 membrane polyspecificity reagent, FACS + sequencing; frameworks hold sequencing errors
How it was run: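 After 36–48 hours of galactose induction, yeast (Saccharomyces cerevisiae BJ5465) displaying a synthetic nanobody library were stained at 4 °C for 1 hour with 10% biotinylated, detergent-solubilized Sf9 membrane reagent. Streptavidin microbeads enriched the stained cells before FACS sorting into low and high (top ~1%) gates on anti-HA and streptavidin fluorescence. Each clone's polyreactivity label reflects its gate of origin.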

Sequence	polyreactivity (PSR sort gate)
QVQLVESGGGLVQAGGSLRLSCAASGSIFTVYAMGWYRQAPGKERELVAAINWSDGDTYYADSVKGRFTISRDNAKNTVYLQMNSLKPEDTAVYYCAAEGIYLILWYGYVEYDYWGQGTQVTVSS	low polyreactivity
QVQLVESGGGLVQAGGSLRLSCAASGSIFTVYAMGWYRQAPGKESELVASIRFSSGRTYYADSVKGRFTISRDNAKNTVYLQMNSLKQEDTAVYYCASETVSWYRYYYWGQGTQVTVSS	high polyreactivity
QVQLVESGGGLVQAGGSLRLSCAASGSIFTVYDMGWYRQAPGKERELVAAIDSSGGSTYYADSVKGRFTISRDNAKNTVYLQMNSLKPEDTAVYYCAADGDTTSPTYYIFWSGEFDYWGQGTQVTVSS	low polyreactivity
QVQLVESGGGLVQAGGSLRLSCAASGSIFTYNAMGWYRQAPGKERELVAAISWSGGSRYYADSVKGRFTISRDNAKNTVYLQMNSLKPVDTAVYYCAAALQYRLYFYPKYDYWGQGTQVTVSS	high polyreactivity
QVQLVESGGGLVQAGGSLRLSCAASGSIFTYNTMGWYRQAPGKERELVATISWSGGRTYYADSVKGRFTISRDNAKNTVYLQMNSLKPEDTAVYYCAAGYYYGYPPRDYWGQGSQVTVSS	high polyreactivity
QVQLVESGGGLVQAGGSLRLSCAASGSIFTYYAMGWYRPAPGKERELVAAISSDGSTTYADSVKGRFTISRDNAKNTVYLQMNSLKPEDTAVYYCAASQFYFYYSPDGYDFWGQGTQVTVSS	low polyreactivity
QVQLVESGGGLVQAGGSLRLSCAASGSIFTYYAMGWYRQAPGKEMELVAAISWSGGSTYYADSVKGRFTISRDNAKNTVYLQLNSLKPEDTAVYYCAKRYRKGRAYPGYEYWGQGTQVTVSS	low polyreactivity
QVQLVESGGGLVQAGGSLRLSCAASGSIFTYYAMGWYRQAPGKERELVAAISASGGSTYYADSVKGRFTISRDNAKNTVYLQMNSLKPEDTAVYYCAADYRRSGGGNLPYDNDYWGQVTQVTVSS	high polyreactivity
QVQLVESGGGLVQAGGSLRLSCAASGSIFTYYAMGWYRQAPGKERELVAAISRRGGSTYYAVSVKGRFTISRDNAKNTVYLQMNSLKPEDTAVYYCNKVAYPRYYTGVNEFDYWGQGTQVTVSS	high polyreactivity
QVQLVESGGGLVQAGGSLRLSCAASGSIFVANAMGWYRQAPGKERELVAAISASGVTTYYADSVKGRFTISRDNAKNTVYLQMNSLKPEDTAVYYCNADYGSDDDVVRYDYWGQGTQVTVSS	low polyreactivity
QVQLVESGGGLVQAGGSLRLSCAASGSIFVANAMGWYRQAPGKERELVAAISVRGGRTYYADSVKGRFTISRDNAKNTVYLQMNSLKPEDTAVYYCARVLRSDVADYDYWGQGTQVTVSS	high polyreactivity
QVQLVESGGGLVQAGGSLRLSCAASGSIFVDYAMGWSRQAPGKERELVAAITSGGRTNYADSVKGRFTISRDNAKNTVYLQMNSLKPEDTAVYYCNKTRYTNYYTTTFDYWGQGTQVTVSS	low polyreactivity
QVQLVESGGGLVQAGGSLRLSCAASGSIFVDYAMGWYRQAPGKEMELVAAISSGGGSTYYADSVKGRFTISRDNAKNTVYLQMNSLKPEDTAVYYCAASVYGQHAGPGRWYTFYYWGQGTQVTVSS	low polyreactivity
QVQLVESGGGLVQAGGSLRLSCAASGSIFVENAMGWYRQAPGKERELVAAISSDASTNYADSVKGRFTISRDNAKNTVYLQMNSLKPEDTAVYSCAAGYNPHGQYDYWGQGTQVTVSS	low polyreactivity
QVQLVESGGGLVQAGGSLRLSCAASGSIFVEYAMGWYRQAPGKERELVSAIRWRGGSTNYADSVKGRFTISRDTAKNTVYLQMNSLNREDTAVYYCNARHPASGDLYRMDYWGQGTQVTVSS	low polyreactivity
QVQLVESGGGLVQAGGSLRLSCAASGSIFVGNAMGWYRQAPGKERELVAAINSGGSTNYADSVKGRFTISRDNAKNTVYLQMNSLKTEDTAVYYCAADDDYCRILQGDQSDDYWGQGTQVTVSS	low polyreactivity
QVQLVESGGGLVQAGGSLRLSCAASGSIFVGTAMGWYRQAPGKERELVADINSGGSTNYADSVKGRVTISRDNAKNTVYLQMNSLKPEDTAVSYCAKSAVSGTYDYWGQGTQVTVSS	low polyreactivity
